For this assay, the target named is T1, recombinant full-length PD-L1 protein (Phe19-Thr290) (UniProt Q9NZQ7 19-290).
T1 construct: Programmed Death-Ligand 1 (PD-L1), residues Phe19-Thr290; also called flPD-L1; source: bought: Amsbio (TP710226)
The assay is described as follows: BLI; FortéBio Octet K2; p17 or p24 immobilised on aminopropylsilane biosensors, saturated with BSA; association and dissociation 8 min each; PBS with 0.01% BSA and 0.002% Tween-20, 1,000 rpm; for kinetics flPD-L1 from 0 to 450 nM, BSA as reference, 1:1 model. The following applies: both partners purified. (In general: Biolayer interferometry detects binding as a change in optical thickness at a sensor tip.)

T1 sequence (Q9NZQ7 19-290): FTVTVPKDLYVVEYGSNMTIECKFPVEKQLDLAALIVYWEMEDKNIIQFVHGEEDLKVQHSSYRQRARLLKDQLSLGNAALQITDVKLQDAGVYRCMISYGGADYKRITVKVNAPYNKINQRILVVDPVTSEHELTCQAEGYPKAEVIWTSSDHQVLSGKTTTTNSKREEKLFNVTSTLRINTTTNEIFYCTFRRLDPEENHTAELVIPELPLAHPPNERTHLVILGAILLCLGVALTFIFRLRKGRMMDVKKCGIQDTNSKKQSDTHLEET

B1: p17 HIV matrix protein (natural protein)
chain: GARASVLSGGELDRWEKIRLRPGGKKKYKLKHIVWASRELERFAVNPGLLETSEGCRQILGQLQPSLQTGSEELRSLYNTVATLYCVHQRIEIKDTKEALDKIEEEQNKSKKKAQQAAADTGHSNQVSQNY
As a reminder, the Kd is a measure of binding affinity in units of concentration. On to B1, for which the dissociation constant (Kd) came to 300 pM.

Values taken from article PMC9286290, “Active PD-L1 incorporation within HIV virions functionally impairs T follicular helper cells” (PLoS Pathogens, 2022).
